Assay results published in patent US20200277355A1.
Like-named read-outs stand apart in the source and are kept apart here.

What was measured:
TNFR1 [1] = biological target: T1, TNFR1
T1 chain: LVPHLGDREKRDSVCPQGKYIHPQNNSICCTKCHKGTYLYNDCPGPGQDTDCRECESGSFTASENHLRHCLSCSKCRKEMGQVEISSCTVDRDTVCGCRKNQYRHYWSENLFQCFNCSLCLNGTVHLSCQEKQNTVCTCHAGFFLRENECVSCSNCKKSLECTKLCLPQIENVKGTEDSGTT

TNFR1 [2] = biological target: T1, TNFR1; assay: SPR (BIAcore), TNFR1 on CM-5 chip, peptide injected
TNFR1 [3] = biological target: T1, TNFR1
TNFR1 [4] = biological target: T1, TNFR1

DEQHLETELH (modifications not checked) [selective TNFR1 antagonist peptide Hydrostatin-SN10]
Kd (TNFR1 [1]): 2800 nM
Kd (TNFR1 [2]): 2800 nM
Kd (TNFR1 [3]): 2830 nM
Kd (TNFR1 [4]): 2780 nM
